36 sequences from the supplement of paper PMC10567573 can be followed below.

± gives the standard deviation.

The data set is described as follows: protein stability index of a GFP-peptide fusion (GPS, HEK-293T) (PSI 1-6); higher = more stable. Conditions: c terminus: a fixed tail appended.
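Further: 24-mer peptide tiles fused after GFP, lentivirally expressed, FACS-sorted into six equal bins by GFP/DsRed ratio, decoded by Illumina sequencing, PSI is the read-weighted mean bin number.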

Take EDEKLCDPNTRPVGEKNCTGPPCD [ADAMTSL2]: the protein stability index stood at 5.47 ± 0.21 (treatment: DMSO) and 5.46 ± 0.26 (treatment: MLN4924 1 uM, 8 h).
For EDGRPSLGSPYGQPPRFPVPHNGS [PDLIM4] the same measures were 4.8 ± 0.17 and 4.63 ± 0.26.
For the sequence EDQWGKGTLTPRMTTDFDLSLDNS [TRIM9], the protein stability index came out at 4.7 ± 0.18 (treatment: DMSO) and 4.9 ± 0.33 (treatment: MLN4924 1 uM, 8 h).
EDSAESRPWRAGVLAEGDNASRSL [PSD2] returned a protein stability index (treatment: DMSO) of 5.21 ± 0.18 and a protein stability index (treatment: MLN4924 1 uM, 8 h) of 5.14 ± 0.084.
The corresponding values for EDVKCQEDQKLQVLLTQIESKKHQ [TRIM15] are 5.12 ± 0.32 and 5.18 ± 0.1.
The corresponding values for EEALKDEEERAQDRIATTDDTTAM [MAGEA10] are 5.7 ± 0.17 and 5.47 ± 0.24.
As to EEKVRDLLWAKFTNSDTPTSFNHM [TOR1AIP2], the protein stability index by setting is: (treatment: DMSO) 3.08 ± 0.12; (treatment: MLN4924 1 uM, 8 h) 3.19 ± 0.13.
The corresponding values for EELANLRASQREYEELRNSERAEV [RSPH3] are 5.21 ± 0.4 and 5.18 ± 0.31.
The corresponding values for EELDKYWSQQIEESTTVVTTQSAE [KRT18] are 5.16 ± 0.27 and 5.23 ± 0.25.
For EELEQEELNKKMTNIRLPNVPSSS [CHMP4C] the same measures were 5.27 ± 0.14 and 5.29 ± 0.15.
EELERRFEDEVKRLGWQQQAELQE [MTUS2] showed a protein stability index (treatment: DMSO) of 5.01 ± 0.51 and a protein stability index (treatment: MLN4924 1 uM, 8 h) of 5.24 ± 0.35.
For EELPCTCPLCTSDRGSCVSTTEGI [RHOBTB3] the same measures were 4.53 ± 0.22 and 4.62 ± 0.27.
For EEPSNKRVRPLARVTSLANLISPV [NET1] the same measures were 3.43 ± 0.47 and 3.44 ± 0.19.
For EEREKEAAEQAERSQSSIVPEEEQ [SMARCE1] the same measures were 5.62 ± 0.36 and 5.57 ± 0.15.
EESPNGSEGACEKEKQSRDFQGRI [RHOBTB1]: the protein stability index is, setting by setting: (treatment: DMSO) 5.35 ± 0.21; (treatment: MLN4924 1 uM, 8 h) 5.32 ± 0.46.
The corresponding values for EFEQFESTIGFKLPNHRAAKRLWK [EPB41L3] are 3.17 ± 0.39 and 3.27 ± 0.61.
For the sequence EFKQNIENVSVEMLLRKFAESKGT [FCHO1], the protein stability index was determined as 2.84 ± 0.27 (treatment: DMSO) and 3.02 ± 0.32 (treatment: MLN4924 1 uM, 8 h).
For EFPYRMNHILECEFYLLELMDCCL [CCNC] the same measures were 2.68 ± 0.31 and 2.84 ± 0.6.
For EGASSQIGRAAGTGFTVNVAWNGP [HDAC6] the same measures were 3.13 ± 0.34 and 3.38 ± 0.29.
The corresponding values for EGSGHSTGEDSAFQEPDSPLPPAR [WEE1] are 5.48 ± 0.14 and 5.52 ± 0.13.
As to EGTFRPERLLAVAERYGLSGSDVL [RAD51], the protein stability index was 3.23 ± 0.18 (treatment: DMSO) and 3.45 ± 0.11 (treatment: MLN4924 1 uM, 8 h).
For EGTSSIVMEIQKQIEKKEKKLHKI [TAF7L] the same measures were 4.18 ± 0.044 and 4.76 ± 0.15.
For EGYTSFWNDCISSGLRGGILIELA [GOLPH3L] the same measures were 3.14 ± 0.74 and 2.49 ± 0.52.
The corresponding values for EHLDNLRLNLTNTKQNFFSQTPIL [INTS3] are 2.35 ± 0.28 and 2.48 ± 0.32.
Turning to EHRHAAAALAAMNGRKIMGKEVKV [TIA1], the protein stability index reads like this: (treatment: DMSO) 3.88 ± 0.23; (treatment: MLN4924 1 uM, 8 h) 3.85 ± 0.27.
The corresponding values for EIRKKVLKIYNKREEDFPSLREYN [MNAT1] are 2.45 ± 0.43 and 2.64 ± 0.51.
The corresponding values for EKGETMEVIEKPENDPEWWKCKNA [NCK2] are 5.36 ± 0.32 and 5.486 ± 0.04.
The corresponding values for EKIDKLEQDMERRKADFKAGKALV [ZC3H15] are 4.74 ± 0.3 and 4.67 ± 0.23.
EKPPSGTKEKKHQCDHCERCFYTR [PLAGL1]: the protein stability index (treatment: DMSO) is 3.87 ± 0.26 and the protein stability index (treatment: MLN4924 1 uM, 8 h) was 4.3 ± 0.62.
For EKSIEQTQIKGLKNKPKKMGHIKP [PHTF1], the protein stability index (treatment: DMSO) stood at 3.93 ± 0.24 and the protein stability index (treatment: MLN4924 1 uM, 8 h) amounted to 4.21 ± 0.25.
For EKSQLIMQAEAEAASVRMRGEAEA [FLOT1] the same measures were 5.04 ± 0.12 and 4.7 ± 0.26.
For EKSTVVEGGEVRFNGKGKKIRKPR [DLX1] the same measures were 4.77 ± 0.28 and 5.06 ± 0.33.
As to ELFIITQLQSMPSRELASMNLDIV [RHOBTB3], the protein stability index runs as follows: (treatment: DMSO) 2.31 ± 0.85; (treatment: MLN4924 1 uM, 8 h) 3.25 ± 0.55.
For ELFQLQTYSLPPFLKAVLRQERVS [CDS1] the same measures were 1.99 ± 0.28 and 1.97 ± 0.37.
The corresponding values for ELHIHRLRYLSSIWNILDLVVILL [PKD2L1] are 2.28 ± 0.33 and 2.54 ± 0.28.
As to ELIGACEFMKDRLYFATLRNRPKS [CDC14A], the protein stability index reads like this: (treatment: DMSO) 2.1 ± 0.5; (treatment: MLN4924 1 uM, 8 h) 2.24 ± 0.19.
